Km data for 1 protein are collected here from ChEMBL document CHEMBL2073860, “A third human carnitine/organic cation transporter (OCTN3) as a candidate for the 5q31 Crohn's disease locus (IBD5)” (Biochem Biophys Res Commun, 2003).

Substrate in the data set: C[N+](C)(C)CC(O)CC(=O)[O-]
As to the kind of experiment: TP_TRANSPORTER: uptake in Octn3-HepG2 cells. Format: functional, cell-based.

B1: Solute carrier family 22 member 21 (Mus musculus), Q9WTN6 (protein)
chain: MLDYDEVTAFLGEWGTFQRLIFFLLSASIIPNGFTGLSAVFLTAIPEHRCRIPDTVNLSSAWRNHSIPMETKDGPEVPQKCRRYRLATIANFSELGLEPGRDVDLEQLEQENCLDGWEYDKDIFLSTIVTEWDLVCKDDWKAPLTTSFFYVGVLLGSFISGQLSDRFGRKNILFLTMAMHTGFSFIQVFSVNFEMFTLLYTLVGMGHISNYVAAFVLGTEMLSKSVRIIFATLGVCIFFAFGFMVLPLFAYFIREWRRLLLAITLPGVLCGALWWFIPESPRWLISQGRIKEAEVIIRKAAKINGIVAPSTIFDPSETNKLQDDSSKKPQSHHIYDLVRTPNIRILTIMSIILWLTISVGYFGLSLDTPNLNGNIYVNCFLLAAVEVPAYVLAWLLLQHVSRRYSMAGSLFLGGSVLLLVQLVPSDLHYLSTTLVMVGKFGITSAYSMVYVYTAELYPTVVRNMGVGVSSTASRLGSILSPYFVYLGAYDRRLPYILMGSLTILTAIITLFFPESSGVSLPETIDEMQKVKKLKQRQSLSKKGSPKESKGNVSRTSRTSEPKGF
Regarding B1, the Km was 20 µM.

Usually Km stands for the concentration of substrate that gives half-maximal velocity.
